Results taken from article PMC3538135.

Molecular target: CD4 (recombinant CD4 antigen) (UniProt P01730 26-396)
Experiment: ellipsometry

## GGGGTTGGTTGTGTTGGGTGTTGTGTCCAACCCCC (ssDNA, 5' thiol-C6) [IFN-gamma aptamer (nonsense control)]
  binding result: no binding
